In the supplement of paper PMC12636428:

Tested on: Saccharomyces cerevisiae
Assay: transcriptional activation domain activity (GFP:mCherry ratio, weighted mean of sorted bins, harmonized to initial dataset scale) (arbitrary fluorescence ratio units); higher = stronger transcriptional activation
Conditions: beta-estradiol 1 µM; induction time 4 h
Protocol: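 53-aa protein tiles (fungal proteins plus yeast TF control tiles) fused C-terminally to a DBD-estrogen-binding domain-mCherry synthetic TF, integrated in S. cerevisiae (URA3 locus) with a GFP reporter. Cells were induced with 1 uM beta-estradiol for 4 h at 30 C, FACS-sorted into 8 bins by GFP:mCherry ratio and barcodes sequenced. Activity is the read-weighted mean bin fluorescence (GFP:mCherry), averaged over barcodes (median 12); tiles under 50 reads were discarded. New active-learning values were harmonized by linear fit onto the scale of the initial (Hummel et al.) dataset. The assay saturates at low and high signal.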

Sequence	transcriptional activation domain activity
AEDRYIMELFVEDFICLAISGGPRLPVERAVSSWMVRILLSIQIRNYMQGNRQ	44500
AEDSDASMDDAPAPKEAAKKAAPVEAGSDSESDSEAEKKKKKAAKKSKKEVVP	22600
AEEEEDAEDEVVEEKIPAKRGRKPRGEKIEEVSSPAAAAPVRGKKAAAAAAKP	24200
AEEEQKKPKGKKAAAASKPKKSSDDEPAPGKSKPAARTGSIKGKSTGTKAGAQ	22300
AEEEVEEEVKEEEEEEAKEEEDANESEPEPAPEPAKKGRGRKAAKAPTPVEDE	39700
AEEGEEGRRKKGASKARSESGRSRIGGKRKEGEGEREGDEGRKKKRKKNKEKE	32800
AEEPAPEAPAPEEPAVEEAVPAEEAAPEAPAPVEEATPEKPVAAEEAAPEAPA	32600
AEEREAKKRAREEEEEEEAERAERAERAARLRRERAEEARRQAEQKHAEEARQ	12100
AEGADAEGEGEEGEKEQEQEKQDGEKDGSEKETGNGQDGKKSEASLSVLNRLL	29400
AEHVDLVGCPVHVMTRFWHLYLPAFTLHTVLYIFTLIRVLNCENSPQALLIRR	56600
AEKEAEPEKEAGSESPQKKITPMKRGRGRPKRGGGAAGASSPEPAAVVVVAER	14700
AEPSIYSNLFLDARLPNNANSTTGLNDNDYNLDDTNNDNTNSMQSILEDFVSS	75100
AESGGESAGNASGEDFAAPKKKSSRSRIKKALQSLGSGKLSPKNSRTPKASPV	28400
AESQLTLRAIVSSKEAGVIIGKGGKNVADLRDETGCKAGVSKVVQGVHDRVLT	22300
AESQSSRATHTRKRAKQACRQCNARRVRCNVAESQPCANCRSSGSACELLPSK	26200
AETKCEGATTNHMKVEKREKKKRGEKAADKSKEERRSKRKEKQRKEGKTVRNG	6970
AEYDVVLLKRLLYELNGRRNRLMVLPSRLALWEIVMPWVIDLVCRVRFNVTYT	64600
AFAGVLLCYFFILFYFIFFFLFFSWLLLLVEYIVWDNLINLLFLVSCFSFFFA	55300
AFEVSGKGRSRTREKVTLDLEELAGGAIDMSKSDLEHLVIHLFIKSYLRMSFV	43100
AFGGGNTTGGGMFGNNTSKPAFGGTSNTGGALFGGGSNTNTGTAGFGTSFGGT	13900
AFHKLQLERGWTGAKMVMHLLKVYFSWQYGHHCTVYRPIFMRDMALGGPYFSQ	55200
AFIHRLHEVYIVAWCMKNVHFMYLHPGVPFYVLCDCTRGDTIMTVHACAEPPP	63000
AFLCWVAPNNATANFIGAGFGGMGFLNLSLDWSNISNLYNLFLTPWWTQVVVY	83700
AFLCWVAPNNQVANFLGSGFGGMGFLNLSLDWSNISTNGSLFLTPWWTQVVMF	52500

Sequence	transcriptional activation domain activity
AFLLFLIYLTFFCWVCFATSATWVWSEILSDNQYTESFMPINDVLLAVLSGII	38700
AFLLFLIYLTFFCWVCFATSATWVWTEILSDNQYTESFMPINDVLLAVLSGII	47600
AFLLFLIYLTLFCWVCFATSSTWVWSEILSDGQYTESFMPVNYVLLAVLSGII	49600
AFLLFLLYLTFFCWVCFATSATWVWSEILSDNQYTESFMPINDVLLAVLSGII	53100
AFLLPFANHHRFVSYCLYVFGFIFFVFSLEKGYYKQQFTQFCVTHMCLLLVVF	39800
AFLVGGGSAFWVLGYGLFYWASRLSLDSFTSVMLYLGYLLLLVLLVFLVTGTI	42700
AFMVSRMVILPFVYSLPVLYDILRPFTAHFLRPKFTLTFLWTHFDLITRVFFL	53400
AFRWIAAFYGLTLATHFTGTVILVSHIAHHVVQAKCILGHRGGPYFYIMRVLV	61400
AFSFALFDFDTLAGTFPFDSLGYSDDISTLTDPLIPMNYDPTPFSWTPRTTLA	54300
AFVLFLIYLTFFCWLCFATSASWVWSEILSDGQYNESFMPVNYVLLAVLSGII	53800
AFVLFLVYLTLFCWVCFATSSSWVYSEILNEGQYTESFMPVNYVLLAVLSGII	64600
AFVNFIYVEDLLNFARTKLGVKWYFSHNLCIYVITHLLHRNMFSSEKVLQMSY	83400
AGAAAASTAAEADGEKDGEEGETKPAAPAKKPRKARAKKQVKSEEKAVEEATG	19300
AGAKQLAYPQKLALIQYSDHISLNILVGKGWQELNAELVCLFVILARNIFVML	45600
AGALLDLYLRRNRCYVSNGYLGCSVLYLSTSLVVSCFLSWVTATILIILDIKR	83600
AGAPVFGLPPFRWWRFNVFWMFWCFFWNLQGVINLVTLDINGYLSIFIPFITI	58700
AGDAFGAVESVKSASDIMSPVSGEVVEANVALKDKPALINRSPEEEGWIVRVR	52900
AGDKPEKSKKDKKKEKEEKKKAAVAAEKEKQEKGDEAVAAAPSPVAAATPSLL	29900
AGDMGIERTGVDLHNGKHPLNALLKAIVGKLHLPLYFHWGPLNIGSCFSIPYA	50300
AGDTSDGESASTPAHSSHQSRKQQVRHRASVACASCRERRIRCVVPEGASECT	27400
AGEAPIAEGQQAQEARPAAEGAGAGTENQPGRAEGEAAKAEAQAEQQQQQGQA	10300
AGEKADAPNGEGAGEGNRRRPSGRGRGRGRGGRGARNGRDGAQEEGAEAAAAP	14300
AGGAFETGGKRRKGKEKVRLDYNAIAGGQVALVKDDLELLIVHLLISRYLGEA	19000
AGGEAAAGGEAAAGEGAAAGGEAKAGEKAAGEGAKAGEEAAGEAKVEAAKPAA	18400

Sequence	transcriptional activation domain activity
AGGGNHPPPPPPPPPPAGRSGGAPPPPPPPPPPPPGAGGGNHPPPPPPPPPPP	23500
AGGGRKAKATQTGAGASRQKTKTGFQTGRSRRAGNAKTKTNRRAINKPRNGDS	28900
AGIRLLERAWYWLHGRYRFTAGYVAELLLNGFKRPHGLLNAYVHHFTNFNITD	72000
AGKKTVTSEEAEVKVEVEAEVGVEVDIEPAAAKKPAKKTKAKVKTIAEEEVKV	31900
AGLIVLSGRFNGVVRCLREGFRLRTNIDKCMIFYISCKIALISLFTLLLLVEG	46100
AGLTLPRTSDYSLFYYFLLWFTLFGLAMLFIIIHGIDYVSWPRLIPLTDIIYY	17600
AGNATAGTGTGKGKGKGKGKGKGKGKKAGKNAGKNAGKNAGKNSTAAAGGQQK	20100
AGNGWLLVGWFILHHFVVVSGILVAMLCLSFWDLWGSPGSPLLSRPWVAACFA	50500
AGPARTGSSSSSSSSDEDKKKKKDKAEEKVEEKKEKPEEKAEDKKEASTAVAA	23300
AGQILANQVIITNLTNFIYSITPLPVRYYYLLEMLKFIFFLFMLGMLPLALCA	52400
AGQLGYDPVFGICWYNNSDPAMKLRWMLGSQLFWLLFMSTSEVVFFLVLVCFM	43500
AGQVVQETVHRAGDALKETAESAAQHVFSPRRRRRRRRSSRTGSERAVVCCSR	62000
AGRGGERRRRGLRRGRGRGAGAAARGRDGVRDDGERVAARVRVRVCARVCVCV	42600
AGRWQYATLFFSGVSGGATLALSLCVITHPSLLTRIVVICIFVTLISAFTILP	27900
AGSGGEGADGNETRRRSSGRGRGRGRGRGGRASRGGRGGKSEGAEGFTEKAEG	15900
AGSSTFRDKGKGRASDAGPVSRTGDNEGGEESAGEGNQREKKRVKKEVKKAPR	20300
AGTVPLMIYSTRLARESIGAWRLACLTLFIVTQIRGSVVLLAKSKLWTHILSC	74600
AHACIVLVVCEIDKTLGHSKHLLMIWLMRLLLLILNIMTIVGLFWSFLKCLDV	70900
AHQRTTGASAEEKLALEVVLIMRNDLITHVIVYVLRSFLVYNAPLTGPLAEKL	55000
AHSKKKTCDVCKYPYSFTKVYAQDMPARLPVFLLLRRLAQQGALAMLFAIRAV	73300
AHVGVGISGVEGLQAARSADIAISQFRYLKKLLLVHGAWSYRRLSKLILYSFY	82600
AHVTMPYLLAIACHTAGIICMWICYCACLVWCSTVLPILLIIIIILIVFLNAN	25200
AHYLNHNPHQPSMGFDQALGLKLSPSSSGLLSTNESNAIEQFLDNLISQDMMS	110000
